Experimental data published in publication PMC5942852 (2018).
Several values for one entry are separate records, joined by “and”; a condition that tells them apart may be missing. Equal values may be shown once.

T1: Bee Hyaluronidase (bee)
T1 chain: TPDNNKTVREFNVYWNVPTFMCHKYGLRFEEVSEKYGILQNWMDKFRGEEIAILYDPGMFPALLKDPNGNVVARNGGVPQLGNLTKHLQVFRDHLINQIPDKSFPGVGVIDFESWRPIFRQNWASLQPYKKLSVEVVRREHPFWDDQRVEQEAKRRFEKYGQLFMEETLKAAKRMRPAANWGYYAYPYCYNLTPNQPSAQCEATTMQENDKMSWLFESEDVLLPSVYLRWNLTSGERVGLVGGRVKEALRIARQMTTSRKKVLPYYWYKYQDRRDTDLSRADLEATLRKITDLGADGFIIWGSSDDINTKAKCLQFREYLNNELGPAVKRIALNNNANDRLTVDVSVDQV


What was measured:
Bee Hyaluronidase [1] = molecular target: T1, Bee Hyaluronidase; assay: SPR; XPR repeat 1
Bee Hyaluronidase [2] = molecular target: T1, Bee Hyaluronidase; assay: SPR; XPR repeat 2
Bee Hyaluronidase [3] = molecular target: T1, Bee Hyaluronidase; assay: SPR; XPR repeat 2
Bee Hyaluronidase [4] = molecular target: T1, Bee Hyaluronidase; assay: SPR
Bee Hyaluronidase [5] = molecular target: T1, Bee Hyaluronidase; assay: SPR

Binder	koff (Bee Hyaluronidase [1])	Kd (Bee Hyaluronidase [2])	koff (Bee Hyaluronidase [3])	Kd (Bee Hyaluronidase [4])	koff (Bee Hyaluronidase [5])
L14_7 (antibody, V domains shown) VH: not shown VL: DIQMTQSPASLSASVGETVTITCRSSRDIKDYITWYQQKQGKSPQLLVYNAKTLAEGVPSRFSGSGSGTEFSLKISSLQPEDFGNYYCQHHYGTRTFGGGTRLEIK	0.000115 s⁻¹	0.962 nM	0.000133 s⁻¹	–	–
WT 2J88 antibody (antibody, V domains shown) VH: not shown VL: DIQMTQSPASLSASVGETVTITCRASENIYSYLTWYQQKQGKSPQLLVYNAKTLAEGVPSRFSGSGSGTQFSLKISSLQPEDFGNYYCQHHYGTRTFGGGTRLEIK	–	–	–	10.4 nM and 15.6 nM	0.00111 s⁻¹ and 0.0013 s⁻¹ and 0.00116 s⁻¹
